The test system of data set [1] is STZ (diabetic) rats. In words: In vivo assay in STZ (diabetic) rats, subcutaneous injection. The arrangement: species or system rat. Conditions: for effect on blood glucose levels: FIG. 17, STZ rats, 12 nmol/kg per rat. From the text:
FIG. 17 presents an in vivo assay done in STZ rats.
FIG. 18 presents another in vivo assay done in STZ rats. The four fusion proteins used in FIG. 17 were subcutaneously injected at doses of 23.8 nmol/kg per rat. […] In this study both fusion proteins carrying an active SCI analogue had similar activities.

Data set [2] is described as follows: Thioflavin T (ThT) fibrillation assay. It is filed as physicochemical. As to conditions: FIG. 15; month-long assay, 100 μM, pH 7.4, 37° C. As for the experimental part:
Fibrillation Assays. We employed an automated plate-based fluorescent device to monitor the time course of peptide fibrillation using a Thioflavin T (ThT) assay. This assay is based on the THT fluorescence emission at 480 nm upon binding to mature fibrils when excited at 440 nm. The assay was performed by preparing stock solutions of the fusion protein and the individual peptides in either NaCl 0.9% (pH 2.5) or PBS (pH 7.4). Our experience has identified 100-μM final concentration as optimal fibrillation conditions for glucagon analogues. Stock solutions were diluted with NaCl 0.9% or 1X PBS buffer, pH adjusted (with 1N HCl or 1N NaOH) mixed with Thioflavin-T (THT) at a final concentration of 16 μM, centrifuged, and 250 μl of the sample were placed on a 96-well plate with 4-10 technical replicates. Measurements were done every 15 minutes and the sample agitated at 1096 cpm at 37° C. on a Synergy H1 microplate reader (BioTek, Winooski, VT). The lag time, defined as the time-point at which fibrillation starts its exponential phase, was considered as the point at which fluorescence was 3 times the background signal.

Bridge positions count the residues as written; N and C are the ends. Square brackets hold non-standard residues; d marks the D form. Orn = NCCC[C@H](N)C(=O)O

B1: HSQGTFTSDYSOKLDSEOAQDFVQWLMNTEEKFVNQHLCGSHLVEALYLVCGEOGFFYTPETEEGPOOGILEQCCQSICSLEQLENYCN (protein)
chain: HSQGTFTSDYS[Orn]KLDSE[Orn]AQDFVQWLMNTEEKFVNQHLCGSHLVEALYLVCGE[Orn]GFFYTPETEEGP[Orn][Orn]GILEQCCQSICSLEQLENYCN
modifications: lactam 13-17; ends not checked
notes: fusion protein made by trypsin-mediated ligation
Turning to B1, the “effect on blood glucose levels” value in data set [1] was “slight rise in blood glucose levels”. The “effect on blood-glucose concentrations” value in data set [1] (FIG. 18, STZ rats, 23.8 nmol/kg per rat) is on record as “didn't cause an increase in blood-glucose concentrations”.

B2: HSQGTFTSDYSOKLDSEOAQDFVQWLMNTEEKFVNQHLCGSHLVEALYLVCGEOGFFYTPETEEGPOOGIVEQCCQSICSLEQLENYCN (protein)
chain: HSQGTFTSDYSXKLDSEXAQDFVQWLMNTEEKFVNQHLCGSHLVEALYLVCGEXGFFYTPETEEGPXXGIVEQCCQSICSLEQLENYCN
modifications: K13-E17 lactam; ornithine residues; glucagon/insulin fusion peptide analog; (12)..(12) Xaa at position 12 is ornithine; (18)..(18) Xaa at position 18 is ornithine; (54)..(54) Xaa at position 54 is ornithine; (67)..(67) Xaa at position 67 is ornithine; (68)..(68) Xaa at position 68 is ornithine
notes: as for B1
As to B2, in data set [2], the “formation of amyloid-like fibrils” value is “did not form amyloid-like fibrils within the duration of the experiment”. For the same molecule, the “effect on blood glucose levels” value in data set [1] was “higher activity than the corresponding analogue containing an active SCI and inactive glucagon”. Besides, in data set [1] (FIG. 18 vs FIG. 17, STZ rats), the “activity at 23.8 nmol/kg relative to the 12-nmol/kg rat doses” value is reported as “stayed in a similar range”.
